Assay results as given in US9658208B2, “Methods and G proteins for screening and identifying ligands of G protein-coupled receptors” (Fred Hutchinson Cancer Research Center, priority 2011, dated 2017).

Molecular target: T1, sweet receptor heterodimer (T1R2/T1R3) (Mus musculus, UniProt Q925D8+Q925I4)
T1 construct: expressed in transfected cells; host or cells: HEK-293
T1 sequence (Q925I4 20-843): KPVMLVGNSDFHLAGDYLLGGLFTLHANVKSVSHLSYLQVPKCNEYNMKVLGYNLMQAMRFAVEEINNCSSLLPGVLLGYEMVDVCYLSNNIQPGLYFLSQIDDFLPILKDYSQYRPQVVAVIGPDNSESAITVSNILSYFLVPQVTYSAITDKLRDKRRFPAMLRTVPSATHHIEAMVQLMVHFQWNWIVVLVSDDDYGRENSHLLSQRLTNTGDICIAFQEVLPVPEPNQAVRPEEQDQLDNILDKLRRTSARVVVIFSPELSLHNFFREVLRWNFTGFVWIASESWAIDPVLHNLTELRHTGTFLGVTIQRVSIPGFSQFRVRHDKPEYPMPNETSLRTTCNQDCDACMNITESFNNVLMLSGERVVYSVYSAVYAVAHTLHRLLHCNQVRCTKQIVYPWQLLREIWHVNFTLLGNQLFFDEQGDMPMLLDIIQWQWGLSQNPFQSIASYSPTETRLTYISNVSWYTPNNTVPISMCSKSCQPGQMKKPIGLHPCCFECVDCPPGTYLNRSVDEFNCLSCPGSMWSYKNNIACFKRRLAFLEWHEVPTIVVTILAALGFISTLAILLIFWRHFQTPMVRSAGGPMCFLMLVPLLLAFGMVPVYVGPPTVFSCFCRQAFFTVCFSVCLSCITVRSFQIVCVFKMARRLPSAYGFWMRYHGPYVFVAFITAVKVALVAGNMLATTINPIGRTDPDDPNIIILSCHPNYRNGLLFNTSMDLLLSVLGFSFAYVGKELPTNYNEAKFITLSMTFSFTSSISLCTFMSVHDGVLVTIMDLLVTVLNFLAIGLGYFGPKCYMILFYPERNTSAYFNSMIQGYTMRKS
T1 sequence (Q925D8 21-858): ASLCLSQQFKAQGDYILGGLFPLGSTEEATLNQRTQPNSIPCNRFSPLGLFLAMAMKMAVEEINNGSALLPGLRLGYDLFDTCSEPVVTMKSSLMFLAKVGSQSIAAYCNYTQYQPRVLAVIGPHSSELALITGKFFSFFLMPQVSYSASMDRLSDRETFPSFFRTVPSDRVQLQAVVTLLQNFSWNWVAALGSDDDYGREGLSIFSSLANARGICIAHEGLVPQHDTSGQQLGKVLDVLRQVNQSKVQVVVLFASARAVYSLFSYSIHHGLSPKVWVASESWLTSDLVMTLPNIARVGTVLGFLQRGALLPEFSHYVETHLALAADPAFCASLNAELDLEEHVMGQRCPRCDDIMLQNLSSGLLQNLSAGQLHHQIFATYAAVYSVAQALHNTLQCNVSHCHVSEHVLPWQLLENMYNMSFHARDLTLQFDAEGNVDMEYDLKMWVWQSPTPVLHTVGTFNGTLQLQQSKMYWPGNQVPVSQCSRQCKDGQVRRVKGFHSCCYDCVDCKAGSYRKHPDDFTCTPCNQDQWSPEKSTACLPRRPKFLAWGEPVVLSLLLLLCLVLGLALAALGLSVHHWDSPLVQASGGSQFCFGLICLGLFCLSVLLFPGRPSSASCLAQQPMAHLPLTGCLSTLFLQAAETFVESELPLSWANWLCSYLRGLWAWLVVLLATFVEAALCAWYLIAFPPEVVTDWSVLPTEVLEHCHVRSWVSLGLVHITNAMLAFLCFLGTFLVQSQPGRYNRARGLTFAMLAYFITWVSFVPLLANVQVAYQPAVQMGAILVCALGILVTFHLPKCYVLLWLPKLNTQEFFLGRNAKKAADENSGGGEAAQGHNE
Assay: CRE-SEAP reporter gene assay, coupling with sweet receptor
Type: cell-based
Settings: HEK-293 cells cotransfected with T1R2 and T1R3; 5 mM saccharin
Source text: The GPCRs examined were those that couple with Gαi/Gαo subunits (serotonin 1b, neuropeptide Y1, leukotriene B4, and dopamine D4), Gαq (GNRH, UDP, and calcium-sensing receptors), and the orphan mammalian sweet taste receptor complex (T1R2 and T1R3) with unknown coupling preference. The Gαs-based chimeric G proteins examined in this example were Gαs-Gαi-5, Gαs-Gαt-13 (SEQ ID NO: 3), Gαs-Gαo-13 (SEQ ID NO: 4), Gαs-Gαi-13 (SEQ ID NO: 5), Gαs-Gαz-6 (SEQ ID NO: 18), Gαs-Gα15-13 (SEQ ID NO: 7), Gαs-Gαk-5 (SEQ ID NO: 2), and Gαs-Gαq-13 (SEQ ID NO: 8). The chimeric G protein constructs were prepared as described herein. For the coupling assay, HEK-293 cells were cotransfected with each of the Gαs-based chimeric G protein constructs of interest together with the CRE-SEAP reporter gene construct and a cDNA encoding the GPCR to be tested. The transfected cells were cultured in the presence or absence of a GPCR ligand and then assayed for SEAP activity.
Also tested was whether the chimeric G proteins disclosed herein can be used to detect the activation of GPCRs whose G protein coupling preference is unknown, as is the case with orphan GPCRs. […]
Following transfection, the cells were maintained for 48 hours in 200 ul serum free media containing GPCR ligand. […] Fluorescence was then measured using a CytoFluor 4000 multi well plate reader (Applied Biosystems).

B1: Gαs-Gαt-13: Gαs-based chimeric G protein, final 13 C-terminal amino acids substituted with those of Gαt (protein)
chain: MGCLGNSKTEDQRNEEKAQREANKKIEKQLQKDKQVYRATHRLLLLGAGESGKSTIVKQMRILHVNGFNGEGGEEDVPDYASNSDGEKATKVQDIKNNLKEAIETIVAAMSNLVPPVELANPENQFRVDYILSVMNVPNFDFPPEFYEHAKALWEDEGVRACYERSNEYQLIDCAQYFLDKIDVIKQADYVPSDQDLLRCRVLTSGIFETKFQVDKVNFHMFDVGGQRDERRKWIQCFNDVTAIIFVVASSSYNMVIREDNQTNRLQEALNLFKSIWNNRWLRTISVILFLNKQDLLAEKVLAGKSKIEDYFPEFARYTTPEDATPEPGEDPRVTRAKYFIRDEFLRISTASGDGRHYCYPHFTCAVDTENIRRVFNDCRDIIIKENLKDCGLF
modifications: Chimeric protein
notes: Gαs-based chimeric G protein, final 13 C-terminal amino acids substituted with those of Gαt
increase in SEAP activity: about two
